Here are results for 4 molecules from US20250382376A1 (FUDAN UNIVERSITY, published 2025).

By EC50 is commonly meant the concentration needed to bring the measured effect to its halfway point. For orientation: koff means the first-order rate constant of dissociation. Broadly, the kon is the rate constant with which the complex forms.

Assay [1] has as its target T1, CD73 on the surface of human cells (human, UniProt P21589 27-549).
T1 sequence (looked up): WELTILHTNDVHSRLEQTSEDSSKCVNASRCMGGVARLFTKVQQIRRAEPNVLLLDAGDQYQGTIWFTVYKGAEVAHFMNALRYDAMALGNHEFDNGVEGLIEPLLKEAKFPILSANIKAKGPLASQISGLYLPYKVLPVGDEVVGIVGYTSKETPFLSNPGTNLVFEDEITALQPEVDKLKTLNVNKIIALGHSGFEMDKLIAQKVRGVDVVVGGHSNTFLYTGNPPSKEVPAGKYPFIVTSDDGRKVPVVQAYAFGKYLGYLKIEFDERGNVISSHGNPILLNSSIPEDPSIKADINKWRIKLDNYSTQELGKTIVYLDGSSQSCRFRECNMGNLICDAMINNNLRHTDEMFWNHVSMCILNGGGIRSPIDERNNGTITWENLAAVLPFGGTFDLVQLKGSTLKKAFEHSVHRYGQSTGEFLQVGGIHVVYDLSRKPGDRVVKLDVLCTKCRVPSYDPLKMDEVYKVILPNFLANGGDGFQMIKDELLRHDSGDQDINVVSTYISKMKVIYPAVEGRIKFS
Put plainly: cell-based or functional assay.

The target of assay [2] is T2, human recombinant CD73 enzyme (CD73 extracellular region) (human, UniProt P21589 27-549).
T2 sequence (looked up): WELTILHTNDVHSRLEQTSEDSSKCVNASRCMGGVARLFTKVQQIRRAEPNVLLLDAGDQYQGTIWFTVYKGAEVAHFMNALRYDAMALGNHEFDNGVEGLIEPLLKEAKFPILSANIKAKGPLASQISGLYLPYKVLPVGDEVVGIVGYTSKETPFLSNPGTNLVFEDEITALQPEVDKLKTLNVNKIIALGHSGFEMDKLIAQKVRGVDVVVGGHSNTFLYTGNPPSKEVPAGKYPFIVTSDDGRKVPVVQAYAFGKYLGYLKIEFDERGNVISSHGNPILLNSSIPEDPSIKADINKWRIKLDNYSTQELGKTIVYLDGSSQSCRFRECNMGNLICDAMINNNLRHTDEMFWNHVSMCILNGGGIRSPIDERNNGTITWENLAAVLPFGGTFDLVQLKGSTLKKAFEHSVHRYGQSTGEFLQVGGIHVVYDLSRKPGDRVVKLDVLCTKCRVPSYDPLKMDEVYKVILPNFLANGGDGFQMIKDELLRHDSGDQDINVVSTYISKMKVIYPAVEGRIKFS
Put plainly: cell-based or functional assay.

In assay [3] the target is T1, CD73 on the surface of human cells. Put plainly: flow cytometry on PC9 cells. Here is the method: (§1) 100 μL of the test antibodies diluted from 10 μg/mL to 0.016 μg/mL in a 5-fold gradient were used as the primary antibodies, and were mixed with 1×10⁵ tumor cells suspended in 100 μL RPMI-1640 serum-free medium to make a final concentration of 5 μg/mL diluted to 0.008 μg/mL, and then incubated at 4° C. for 1 h. The cells were washed twice with PBS to remove unbound primary antibodies, and then the target cells were incubated with 200 μLPE-labeled secondary antibody at 2 μg/mL at 4° C. for 30 min. The cells were washed twice with PBS to remove unbound secondary antibodies, and finally the cells were resuspended in 200 μL PBS. The binding affinity of the test antibodies to CD73 on the surface of the corresponding cells was measured by flow cytometry.

The target is the same in assay [4]. Nature of the assay: flow cytometry on HCC44 cells. Here is the method:
as §1

For assay [5] the target is unchanged. Nature of the assay: flow cytometry on NCI-H1373 cells. Here is the method:
as §1
(In flow cytometry, cells or beads pass a laser one at a time.)

The target is the same in assay [6]. Put plainly: flow cytometry on NCI-H1975 cells. Here is the method:
as §1

Assay [7] has the same target. Put plainly: flow cytometry on MDA-MB-231 cells. The procedure: as §1
The target is the same in assay [8]. Put plainly: Flow cytometry on NCI-H1299 cells, PE-labelled secondary antibody [panel B]. The procedure:
as §1

The target is the same in assay [9]. Nature of the assay: Flow cytometry on NCI-H1975 cells, PE-labelled secondary antibody [panel B]. Here is the method:
as §1

In assay [10] the target is T3, extracellular domain of human CD73 protein, C-terminus polyhistidine-tagged (human, UniProt P21589 27-547).
T3 construct: also the immunogen; also called CD73-ECD; human CD73-ECD
T3 sequence: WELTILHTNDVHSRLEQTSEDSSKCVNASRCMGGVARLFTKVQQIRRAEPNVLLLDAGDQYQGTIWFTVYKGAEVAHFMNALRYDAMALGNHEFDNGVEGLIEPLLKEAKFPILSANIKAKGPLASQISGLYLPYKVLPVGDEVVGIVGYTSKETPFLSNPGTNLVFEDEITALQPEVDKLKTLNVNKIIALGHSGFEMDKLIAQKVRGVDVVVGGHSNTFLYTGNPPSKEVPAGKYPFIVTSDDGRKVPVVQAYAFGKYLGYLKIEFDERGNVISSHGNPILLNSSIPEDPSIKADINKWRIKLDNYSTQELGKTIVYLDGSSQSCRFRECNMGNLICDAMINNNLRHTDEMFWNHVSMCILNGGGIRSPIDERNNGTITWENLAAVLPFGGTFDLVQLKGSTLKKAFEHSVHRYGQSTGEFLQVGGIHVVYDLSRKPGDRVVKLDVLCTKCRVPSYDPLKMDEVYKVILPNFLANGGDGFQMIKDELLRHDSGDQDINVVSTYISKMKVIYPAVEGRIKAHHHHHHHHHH
Nature of the assay: ELISA on coated human CD73-ECD, HRP-protein A detection; fitted upper plateau of the OD450 curve. More on the design: unit not given here. The procedure:
The CD73 protein extracellular region (CD73-ECD) was diluted to 1 μg/mL using the coating solution, and an ELISA plate was coated at 100 μL/well at 4° C. overnight. Excess antigens were washed away, and the plate was blocked with 1% BSA at room temperature for 2 hours. Then, 5-fold gradient dilutions of each monoclonal antibody were added at 100 μL/well and incubated at room temperature for 1 hour. Unbound antibodies were washed away, and an appropriate concentration of Staphylococcal protein A labeled with horseradish peroxidase was added at 100 μL/well and incubated at room temperature for 0.5 hours. Unbound secondary antibodies were washed away, and TMB color development solution was added to react for about 15 minutes. 1M HCL was added at 50 µL/well to terminate the color development reaction, and then the absorbance was measured at 450 nm and the data was analyzed.
(In an ELISA, binding on a coated surface is turned into a signal by an enzyme label.)

The target in assay [11] is T3, extracellular domain of human CD73 …. Put plainly: ForteBio OCTET R2 (the filing calls it SPR); antibody on Protein A sensor, CD73-ECD in solution; traces labelled 100, 50, 25, 12.5, 6.25. The procedure:
Surface plasmon resonance (SPR) assay: Protein A sensor was used to immobilize the antibodies, with an immobilization height of about 1.5 nM. […] Affinity detection: equilibrium for 60 s, binding for 180 s, dissociation for 180 s, at a detection temperature of 25° C. Kinetic characterization analysis was performed using the ForteBio OCTET R2 system.
For orientation: In BLI a coated tip is dipped into the sample, and binding shifts an interference pattern.

Assay [12] concerns the target T1, CD73 on the surface of human cells. Nature of the assay: flow cytometry on NCI-H1299 cells.

B1: chimeric nanobody 3-D7 (Fc fusion)
VHH: QRQLVESGGGLVQPGGSLRLSCAASGFLLDYYVIGWFRQAPGKEREGVSCISGSDRSTYYADSVKGRFTISRDNAKNTVYLQMNSLKPEDTAVYFCAADPSPVTVQAMCLPRFPVPYWGQGTQVTVST
notes: Human-alpaca chimeric antibody (VHH on hIgG1 Fc); Only the VHH is tied to the tested molecule; 37-39 exist for 3-D7-FC1/FC2/FC3; also called original antibody 3-D7
Turning to B1, the “EC50, reversal of the AMP inhibition of human T lymphocyte proliferation” value in assay [1] worked out at 0.0247 µg/mL. In addition, in assay [1], the “IC50, inhibition of AMP hydrolysis by CD73 on MDA-MB-231 cells” value (from here on “IC50, inhibition … on MDA-MB-231 cells”) worked out at 0.483 µg/mL. The “IC50, inhibition of AMP hydrolysis by recombinant human CD73 enzyme (CellTiter-Glo)” value (from here on “IC50, inhibition … (CellTiter-Glo)”) in assay [2] was 0.0382 µg/mL. Besides, the “IC50, inhibition of the catalytic function of recombinant human CD73 enzyme” value in [2] was found to be 0.0363 µg/mL. Also, the half-maximal effective concentration (EC50) in assay [3] is 0.133 µg/mL; in [4], 0.234 µg/mL; in [5], 0.227 µg/mL; in assay [6], 0.106 µg/mL; in [7], 0.12 µg/mL. The entries for the “Max MFI” value in assay [8] and in [9] were 155000 MFI and 80900 MFI, respectively. The “Top (%)” value in assay [10] was 1.79. For the same molecule, in assay [11], the koff is 0.000445 s⁻¹. In assay [11], this molecule registered a kon of 223000 M⁻¹ s⁻¹.

B2: chimeric nanobody 5-E11 (Fc fusion)
VHH: ALQLVESGGGLVQPGGSLRLSCEVSGFTLDYYNIGWFRQAPGKEREGVSCSSNSGGSTYYADSVKGRFTISRDNAKNTVYLQMNSLKPEDTGVYYCAAYRGWHPSLDARVYDYWGQGTEVTVSS
notes: Human-alpaca chimeric antibody (VHH on hIgG1 Fc); Only the VHH is tied to the tested molecule; also called original antibody 5-E11
In the case of B2, in [1], the “EC50, reversal of the AMP inhibition of human T lymphocyte proliferation” value stood at 0.0008 µg/mL. Also, in assay [1], the “IC50, inhibition … on MDA-MB-231 cells” value was 0.088 µg/mL. In addition, in [2], the “IC50, inhibition … (CellTiter-Glo)” value is 0.00947 µg/mL. The EC50 in [3] was determined as 0.041 µg/mL; in assay [4] it was 0.096 µg/mL; in [12], 0.068 µg/mL; in assay [5], 0.135 µg/mL; in [6], 0.057 µg/mL; in [7], 0.037 µg/mL. In addition, the entries for the “Max MFI” value in assay [8] and in assay [9] were 157000 MFI and 79700 MFI, respectively. For the same molecule, the “Top (%)” value in assay [10] is 2.28. The koff in assay [11] came out at 0.000318 s⁻¹. The kon in assay [11] was found to be 385000 M⁻¹ s⁻¹.

B3: chimeric nanobody 4-D04 (Fc fusion)
VHH: QLQLVESGGGLVQPGGSLRLSCAASGFTLDYYNIGWFRQAPGKEREGVSCISSSEGSTYYADSVKGRFTISRDNAKNTVYLQMNSLKPEDTAVYYCAADRYYYCSLHVSQYDYWGQGTLVTVSS
notes: Human-alpaca chimeric antibody
B3: the “EC50, reversal of the AMP inhibition of human T lymphocyte proliferation” value in assay [1] worked out at 0.0025 µg/mL. Moreover, the “IC50, inhibition … on MDA-MB-231 cells” value in assay [1] worked out at 0.093 µg/mL. In assay [2], the “IC50, inhibition … (CellTiter-Glo)” value stood at 0.00563 µg/mL. Further, the EC50 in [3] is 0.057 µg/mL; in assay [4], 0.114 µg/mL; in assay [12], 0.08 µg/mL; in [5] it was 0.163 µg/mL; in assay [6], 0.068 µg/mL; in assay [7], 0.059 µg/mL. The “Max MFI” value in [8] stood at 168000 MFI; in assay [9], 86100 MFI. Also, in assay [10], the “Top (%)” value turned out to be 2.08. In addition, in [11], the koff amounted to 0.000277 s⁻¹. This molecule had an association rate constant (kon) in assay [11] of 301000 M⁻¹ s⁻¹.

B4: chimeric nanobody 4-B02 (Fc fusion)
VHH: EVQLVESGGGLVQPGGSLRLSCAASGFPLDYYSIGWFRQAPGKEREGVSCIGSSDGSTYYADSVKGRFTISRDNAENTVWLQMNSLKPEDTAVYYCAALKYYYCSGHEAIYDYWGQGTQVTVSG
notes: as for B3
As for B4, the “EC50, reversal of the AMP inhibition of human T lymphocyte proliferation” value in assay [1] was determined as 0.0012 µg/mL. The “IC50, inhibition … on MDA-MB-231 cells” value in assay [1] was 0.083 µg/mL. Further, the “IC50, inhibition … (CellTiter-Glo)” value in [2] worked out at 0.00466 µg/mL. For the same molecule, the EC50 in [3] is 0.044 µg/mL; in [4], 0.105 µg/mL; in assay [12] it was 0.078 µg/mL; in assay [5], 0.112 µg/mL; in assay [6] it was 0.055 µg/mL; in assay [7] it was 0.037 µg/mL. The “Max MFI” value in [8] was found to be 170000 MFI; in [9], 82700 MFI. For the same molecule, the “Top (%)” value in [10] came to 2. This molecule also returned a dissociation rate constant (koff) in [11] of 0.000209 s⁻¹. For the same molecule, the association rate constant (kon) in [11] came to 263000 M⁻¹ s⁻¹.
